Laboratory results taken from the array DNA melting data of Ke et al..

Test: melting temperature; melt of duplexes
Conditions: sodium 0.0675 M; strand 1 µM

Substance	Tm [°C]
CGACGTGCACAATGTGCTG+CAGCACATGTAGCACGTCG ((((((((...((((((((+))))))))...))))))))	50.7
CGACGTGCATGATGTGCTG+CAGCACATTTAGCACGTCG ((((((((...((((((((+))))))))...))))))))	49.8
CGACGTGCCCAATGTGCTG+CAGCACATAGCGCACGTCG ((((((((.(.((((((((+)))))))).).))))))))	48.9
CGACGTGCTTCATGTGCTG+CAGCACATACGGCACGTCG ((((((((...((((((((+))))))))...))))))))	47.7
CGACGTGCTCGATGTGCTG+CAGCACATGGCGCACGTCG ((((((((.(.((((((((+)))))))).).))))))))	50.8
CGACGTGCCGTATGTGCTG+CAGCACATTATGCACGTCG ((((((((...((((((((+))))))))...))))))))	48.6
CGACGTGCCTAATGTGCTG+CAGCACATTCTGCACGTCG ((((((((..(((((((((+)))))))))..))))))))	51
CGACGTGCGTGATGTGCTG+CAGCACATCATGCACGTCG ((((((((.((((((((((+)))))))))).))))))))	60.2
CGACGTGCAGGATGTGCTG+CAGCACATGGAGCACGTCG ((((((((...((((((((+))))))))...))))))))	50.3
CGACGTGCCTGATGTGCTG+CAGCACATACAGCACGTCG ((((((((...((((((((+))))))))...))))))))	50.8
CGACGTGCCACATGTGCTG+CAGCACATTGCGCACGTCG ((((((((...((((((((+))))))))...))))))))	50.5
CGACGTGCGCTATGTGCTG+CAGCACATCCTGCACGTCG ((((((((...((((((((+))))))))...))))))))	48.1
CGACGTGCAATATGTGCTG+CAGCACATCATGCACGTCG (((((((((..((((((((+))))))))..)))))))))	50.3
CGACGTGCTAAATGTGCTG+CAGCACATTAGGCACGTCG ((((((((..(((((((((+)))))))))..))))))))	53.8
CGACGTGCGATATGTGCTG+CAGCACATTATGCACGTCG ((((((((...((((((((+))))))))...))))))))	52.2
CGACGTGCGTAATGTGCTG+CAGCACATCAGGCACGTCG ((((((((.(.((((((((+)))))))).).))))))))	51.5
CGACGTGCGCAATGTGCTG+CAGCACATGGGGCACGTCG ((((((((.(.((((((((+)))))))).).))))))))	56.5
CGACGTGCTTCATGTGCTG+CAGCACATAATGCACGTCG ((((((((.(.((((((((+)))))))).).))))))))	50.4
CGACGTGCGTTATGTGCTG+CAGCACATTTGGCACGTCG ((((((((...((((((((+))))))))...))))))))	49.4
CGACGTGCCGCATGTGCTG+CAGCACATCTCGCACGTCG ((((((((...((((((((+))))))))...))))))))	47.8
CGACGTGCGATATGTGCTG+CAGCACATTCTGCACGTCG ((((((((...((((((((+))))))))...))))))))	51.5
CGACGTGCTCTATGTGCTG+CAGCACATTTGGCACGTCG ((((((((...((((((((+))))))))...))))))))	50.1
CGACGTGCGGTATGTGCTG+CAGCACATTTGGCACGTCG ((((((((...((((((((+))))))))...))))))))	49.9
CGACGTGCGCCATGTGCTG+CAGCACATCGTGCACGTCG ((((((((.(.((((((((+)))))))).).))))))))	47.7
CGACGTGCGGCATGTGCTG+CAGCACATGGCGCACGTCG (((((((((.(((((((((+))))))))).)))))))))	65.9
CGACGTGCCACATGTGCTG+CAGCACATAAGGCACGTCG (((((((((..((((((((+))))))))..)))))))))	54

Substance	Tm [°C]
CGACGTGCCGGATGTGCTG+CAGCACATTATGCACGTCG ((((((((...((((((((+))))))))...))))))))	49.7
CGACGTGCCAGATGTGCTG+CAGCACATCTGGCACGTCG (((((((((((((((((((+)))))))))))))))))))	66.5
CGACGTGCAGAATGTGCTG+CAGCACATTCGGCACGTCG ((((((((.((((((((((+)))))))))).))))))))	59.9
CGACGTGCGGGATGTGCTG+CAGCACATGCCGCACGTCG ((((((((((.((((((((+)))))))).))))))))))	63.7
CGACGTGCGGCATGTGCTG+CAGCACATATCGCACGTCG (((((((((..((((((((+))))))))..)))))))))	54.7
CGACGTGCTGTATGTGCTG+CAGCACATAGAGCACGTCG (((((((((.(((((((((+))))))))).)))))))))	55.9
CGACGTGCTCTATGTGCTG+CAGCACATTCCGCACGTCG ((((((((...((((((((+))))))))...))))))))	46.7
CGACGTGCATTATGTGCTG+CAGCACATGCAGCACGTCG ((((((((...((((((((+))))))))...))))))))	48.7
CGACGTGCTCGATGTGCTG+CAGCACATACGGCACGTCG ((((((((...((((((((+))))))))...))))))))	50.5
CGACGTGCATGATGTGCTG+CAGCACATAATGCACGTCG ((((((((((.((((((((+)))))))).))))))))))	56
CGACGTGCATAATGTGCTG+CAGCACATCTGGCACGTCG ((((((((...((((((((+))))))))...))))))))	49.3
CGACGTGCAGGATGTGCTG+CAGCACATGATGCACGTCG (((((((((..((((((((+))))))))..)))))))))	55
CGACGTGCGTCATGTGCTG+CAGCACATACAGCACGTCG ((((((((...((((((((+))))))))...))))))))	53
CGACGTGCAGAATGTGCTG+CAGCACATGCGGCACGTCG ((((((((.(.((((((((+)))))))).).))))))))	54.4
CGACGTGCGGTATGTGCTG+CAGCACATTCCGCACGTCG ((((((((((.((((((((+)))))))).))))))))))	60
CGACGTGCCGGATGTGCTG+CAGCACATGGAGCACGTCG ((((((((...((((((((+))))))))...))))))))	51
CGACGTGCAAGATGTGCTG+CAGCACATACGGCACGTCG ((((((((...((((((((+))))))))...))))))))	49.2
CGACGTGCTTGATGTGCTG+CAGCACATGACGCACGTCG ((((((((.(.((((((((+)))))))).).))))))))	46.5
CGACGTGCCCGATGTGCTG+CAGCACATCTGGCACGTCG (((((((((.(((((((((+))))))))).)))))))))	59.1
CGACGTGCAGGATGTGCTG+CAGCACATAGCGCACGTCG ((((((((...((((((((+))))))))...))))))))	49.6
CGACGTGCACGATGTGCTG+CAGCACATCTTGCACGTCG (((((((((.(((((((((+))))))))).)))))))))	55.7
CGACGTGCTCCATGTGCTG+CAGCACATGTTGCACGTCG ((((((((..(((((((((+)))))))))..))))))))	52.7
CGACGTGCAAGATGTGCTG+CAGCACATCTAGCACGTCG ((((((((.((((((((((+)))))))))).))))))))	57.9
CGACGTGCAGAATGTGCTG+CAGCACATGCAGCACGTCG ((((((((.(.((((((((+)))))))).).))))))))	54.6
CGACGTGCACCATGTGCTG+CAGCACATAGGGCACGTCG ((((((((.(.((((((((+)))))))).).))))))))	51.5
CGACGTGCAGCATGTGCTG+CAGCACATGGAGCACGTCG ((((((((..(((((((((+)))))))))..))))))))	54.1
